From patent US9618524B2, “Method, composition, isolation and identification of a plaque particle and related biomarker” (Plaxgen Inc., priority 2012, dated 2017)

B1: Guanine deaminase (protein)
chain: MCAAQMPPLAHIFRGTFVHSTWTCPMEVLRDHLLGVSDSGKIVFLEEASQQEKLAKEWCFKPCEIRELSHHEFFMPGLVDTHIHASQYSFAGSSIDLPLLEWLTKYTFPAEHRFQNIDFAEEVYTRVVRRTLKNGTTTACYFATIHTDSSLLLADITDKFGQRAFVGKVCMDLNDTFPEYKETTEESIKETERFVSEMLQKNYSRVKPIVTPRFSLSCSETLMGELGNIAKTRDLHIQSHISENRDEVEAVKNLYPSYKNYTSVYDKNNLLTNKTVMAHGCYLSAEELNVFHERGASIAHCPNSNLSLSSGFLNVLEVLKHEVKIGLGTDVAGGYSYSMLDAIRRAVMVSNILLINKVNEKSLTLKEVFRLATLGGSQALGLDGEIGNFEVGKEFDAILINPKASDSPIDLFYGDFFGDISEAVIQKFLYLGDDRNIEEVYVGGKQVVPFSSSVKETIHLPASSPHPPPFP
B2: Catalase (protein)
chain: ADSRDPASDQMQHWKEQRAAQKADVLTTGAGNPVGDKLNVITVGPRGPLLVQDVVFTDEMAHFDRERIPERVVHAKGAGAFGYFEVTHDITKYSKAKVFEHIGKKTPIAVRFSTVAGESGSADTVRDPRGFAVKFYTEDGNWDLVGNNTPIFFIRDPILFPSFIHSQKRNPQTHLKDPDMVWDFWSLRPESLHQVSFLFSDRGIPDGHRHMNGYGSHTFKLVNANGEAVYCKFHYKTDQGIKNLSVEDAARLSQEDPDYGIRDLFNAIATGKYPSWTFYIQVMTFNQAETFPFNPFDLTKVWPHKDYPLIPVGKLVLNRNPVNYFAEVEQIAFDPSNMPPGIEASPDKMLQGRLFAYPDTHRHRLGPNYLHIPVNCPYRARVANYQRDGPMCMQDNQGGAPNYYPNSFGAPEQQPSALEHSIQYSGEVRRFNTANDDNVTQVRAFYVNVLNEEQRKRLCENIAGHLKDAQIFIQKKAVKNFTEVHPDYGSHIQALLDKYNAEKPKNAIHTFVQSGSHLAAREKANL
B3: Apolipoprotein M (protein)
chain: MFHQIWAALLYFYGIILNSIYQCPEHSQLTTLGVDGKEFPEVHLGQWYFIAGAAPTKEELATFDPVDNIVFNMAAGSAPMQLHLRATIRMKDGLCVPRKWIYHLTEGSTDLRTEGRPDMKTELFSSSCPGGIMLNETGQGYQRFLLYNRSPHPPEKCVEEFKSLTSCLDSKAFLLTPRNQEACELSNN
B4: Isoform 2 of Haptoglobin-related protein (protein)
chain: MHVCVCVCVCVYMPVCVDACMCCEAGRPAFRSFLFSLCSDLGAVISLLLWGRQLFALYSGNDVTDISDDRFPKPPEIANGYVEHLFRYQCKNYYRLRTEGDGVYTLNDKKQWINKAVGDKLPECEAVCGKPKNPANPVQRILGGHLDAKGSFPWQAKMVSHHNLTTGATLINEQWLLTTAKNLFLNHSENATAKDIAPTLTLYVGKKQLVEIEKVVLHPNYHQVDIGLIKLKQKVLVNERVMPICLPSKNYAEVGRVGYVSGWGQSDNFKLTDHLKYVMLPVADQYDCITHYEGSTCPKWKAPKSPVGVQPILNEHTFCVGMSKYQEDTCYGDAGSAFAVHDLEEDTWYAAGILSFDKSCAVAEYGVYVKVTSIQHWVQKTIAEN
B5: Ceruloplasmin (protein)
chain: KEKHYYIGIIETTWDYASDHGEKKLISVDTEHSNIYLQNGPDRIGRLYKKALYLQYTDETFRTTIEKPVWLGFLGPIIKAETGDKVYVHLKNLASRPYTFHSHGITYYKEHEGAIYPDNTTDFQRADDKVYPGEQYTYMLLATEEQSPGEGDGNCVTRIYHSHIDAPKDIASGLIGPLIICKKDSLDKEKEKHIDREFVVMFSVVDENFSWYLEDNIKTYCSEPEKVDKDNEDFQESNRMYSVNGYTFGSLPGLSMCAEDRVKWYLFGMGNEVDVHAAFFHGQALTNKNYRIDTINLFPATLFDAYMVAQNPGEWMLSCQNLNHLKAGLQAFFQVQECNKSSSKDNIRGKHVRHYYIAAEEIIWNYAPSGIDIFTKENLTAPGSDSAVFFEQGTTRIGGSYKKLVYREYTDASFTNRKERGPEEEHLGILGPVIWAEVGDTIRVTFHNKGAYPLSIEPIGVRFNKNNEGTYYSPNYNPQSRSVPPSASHVAPTETFTYEWTVPKEVGPTNADPVCLAKMYYSAVEPTKDIFTGLIGPMKICKKGSLHANGRQKDVDKEFYLFPTVFDENESLLLEDNIRMFTTAPDQVDKEDEDFQESNKMHSMNGFMYGNQPGLTMCKGDSVVWYLFSAGNEADVHGIYFSGNTYLWRGERRDTANLFPQTSLTLHMWPDTEGTFNVECLTTDHYTGGMKQKYTVNQCRRQSEDSTFYLGERTYYIAAVEVEWDYSPQREWEKELHHLQEQNVSNAFLDKGEFYIGSKYKKVVYRQYTDSTFRVPVERKAEEEHLGILGPQLHADVGDKVKIIFKNMATRPYSIHAHGVQTESSTVTPTLPGETLTYVWKIPERSGAGTEDSACIPWAYYSTVDQVKDLYSGLIGPLIVCRRPYLKVFNPRRKLEFALLFLVFDENESWYLDDNIKTYSDHPEKVNKDDEEFIESNKMHAINGRMFGNLQGLTMHVGDEVNWYLMGMGNEIDLHTVHFHGHSFQYKHRGVYSSDVFDIFPGTYQTLEMFPRTPGIWLLHCHVTDHIHAGMETTYTVLQNEDTKSG
B6: Cluster of Ig alpha-1 chain C region (protein, UniProt P01876 1-398, looked up)
Immunoglobulin heavy constant …: ASPTSPKVFPLSLCSTQPDGNVVIACLVQGFFPQEPLSVTWSESGQGVTARNFPPSQDASGDLYTTSSQLTLPATQCLAGKSVTCHVKHYTNPSQDVTVPCPVPSTPPTPSPSTPPTPSPSCCHPRLSLHRPALEDLLLGSEANLTCTLTGLRDASGVTFTWTPSSGKSAVQGPPERDLCGCYSVSSVLPGCAEPWNHGKTFTCTAAYPESKTPLTATLSKSGNTFRPEVHLLPPPSEELALNELVTLTCLARGFSPKDVLVRWLQGSQELPREKYLTWASRQEPSQGTTTFAVTSILRVAAEDWKKGDTFSCMVGHEALPLAFTQKTIDRLADWQMPPPYVVLDLPQETLEEETPGANLWPTTITFLTLFLLSLFYSTALTVTSVRGPSGNREGPQY
B7: Ig alpha-2 chain C region (protein)
chain: ASPTSPKVFPLSLDSTPQDGNVVVACLVQGFFPQEPLSVTWSESGQNVTARNFPPSQDASGDLYTTSSQLTLPATQCPDGKSVTCHVKHYTNSSQDVTVPCRVPPPPPCCHPRLSLHRPALEDLLLGSEANLTCTLTGLRDASGATFTWTPSSGKSAVQGPPERDLCGCYSVSSVLPGCAQPWNHGETFTCTAAHPELKTPLTANITKSGNTFRPEVHLLPPPSEELALNELVTLTCLARGFSPKDVLVRWLQGSQELPREKYLTWASRQEPSQGTTTYAVTSILRVAAEDWKKGETFSCMVGHEALPLAFTQKTIDRMAGKPTHINVSVVMAEADGTCY
B8: Vitamin D-binding protein (protein)
chain: LERGRDYEKNKVCKEFSHLGKEDFTSLSLVLYSRKFPSGTFEQVSQLVKEVVSLTEACCAEGADPDCYDTRTSALSAKSCESNSPFPVHPGTAECCTKEGLERKLCMAALKHQPQEFPTYVEPTNDEICEAFRKDPKEYANQFMWEYSTNYGQAPLSLLVSYTKSYLSMVGSCCTSASPTVCFLKERLQLKHLSLLTTLSNRVCSQYAAYGEKKSRLSNLIKLAQKVPTADLEDVLPLAEDITNILSKCCESASEDCMAKELPEHTVKLCDNLSTKNSKFEDCCQEKTAMDVFVCTYFMPAAQLPELPDVELPTNKDVCDPGNTKVMDKYTFELSRRTHLPEVFLSKVLEPTLKSLGECCDVEDSTTCFNAKGPLLKKELSSFIDKGQELCADYSENTFTEYKKKLAERLKAKLPDATPTELAKLVNKHSDFASNCCSINSPPLYCDSEIDAELKNIL

system: High Density cholesterol (Chl Large) plaque particles; assay: Mass spectroscopy proteomics, semi-quantitative binding affinity of serum proteins (plaqueproteome, Table 2); parameters: species or system human; conditions: higher number = stronger affinity
In short: (§1)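 Read-out is MS/MS protein identification (Sequest, strict trypsin, 20 ppm parent tolerance; Scaffold probabilities) of serum proteins bound to flow-sorted cholesterol plaque particles. These particles formed when 50% atherosclerotic serum was incubated with 30 μg cholesterol aggregates for 1 hr at 37° C.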

Q: For B1, which “Semi-quantitative analysis of proteins binding to different plaque particles: Chl Large” value is on record?
A: 0

Q: With B2 as the molecule, how does the “Semi-quantitative analysis of proteins binding to different plaque particles: Chl Large” value read?
A: 0

Q: For B3, which “Semi-quantitative analysis of proteins binding to different plaque particles: Chl Large” value is on record?
A: 0

Q: With B4 as the molecule, how does the “Semi-quantitative analysis of proteins binding to different plaque particles: Chl Large” value read?
A: 15

Q: For B5, which “Semi-quantitative analysis of proteins binding to different plaque particles: Chl Large” value is on record?
A: 20

Q: Which “Semi-quantitative analysis of proteins binding to different plaque particles: Chl Large” value does the source give for B6 here?
A: 10

Q: B7 was tested. Which “Semi-quantitative analysis of proteins binding to different plaque particles: Chl Large” value did it give?
A: 9

Q: B8 was tested. Which “Semi-quantitative analysis of proteins binding to different plaque particles: Chl Large” value did it give?
A: 21

system: Low density cholesterol (Chl small) plaque particles; assay: as above; parameters: species or system human; conditions: higher number = stronger affinity
In short: as §1

Q: B1 was tested. Which “Semi-quantitative analysis of proteins binding to different plaque particles: Chl small” value did it give?
A: 0

Q: For B2, which “Semi-quantitative analysis of proteins binding to different plaque particles: Chl small” value is on record?
A: 0

Q: Which “Semi-quantitative analysis of proteins binding to different plaque particles: Chl small” value does the source give for B3 here?
A: 0

Q: With B4 as the molecule, how does the “Semi-quantitative analysis of proteins binding to different plaque particles: Chl small” value read?
A: 12

Q: With B5 as the molecule, how does the “Semi-quantitative analysis of proteins binding to different plaque particles: Chl small” value read?
A: 22

Q: For B6, which “Semi-quantitative analysis of proteins binding to different plaque particles: Chl small” value is on record?
A: 9

Q: For B7, which “Semi-quantitative analysis of proteins binding to different plaque particles: Chl small” value is on record?
A: 6

Q: Which “Semi-quantitative analysis of proteins binding to different plaque particles: Chl small” value does the source give for B8 here?
A: 18

system: Tau plaque particles; assay: as above; parameters: species or system human; conditions: higher number = stronger affinity
In short: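 Serum or plasma proteins captured on Thioflavin S-labelled Tau plaque particles (Tau-74, Tau-275 oligomers preformed in PBS at 37° C for 2 h; 1 h co-incubation at 37° C) were isolated by FACS sorting, then tryptically digested and identified by MS/MS (Sequest, human UniProt, strict trypsin).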

Q: B1 was tested. Which “Semi-quantitative analysis of proteins binding to different plaque particles: Tau” value did it give?
A: 0

Q: With B2 as the molecule, how does the “Semi-quantitative analysis of proteins binding to different plaque particles: Tau” value read?
A: 0

Q: B3 was tested. Which “Semi-quantitative analysis of proteins binding to different plaque particles: Tau” value did it give?
A: 0

Q: For B4, which “Semi-quantitative analysis of proteins binding to different plaque particles: Tau” value is on record?
A: 11

Q: For B5, which “Semi-quantitative analysis of proteins binding to different plaque particles: Tau” value is on record?
A: 20

Q: How did the “Semi-quantitative analysis of proteins binding to different plaque particles: Tau” value turn out when B6 was run?
A: 12

Q: B7 was tested. Which “Semi-quantitative analysis of proteins binding to different plaque particles: Tau” value did it give?
A: 10

Q: B8 was tested. Which “Semi-quantitative analysis of proteins binding to different plaque particles: Tau” value did it give?
A: 19

target: T1, Abeta-42 plaque particles (Homo sapiens, UniProt P05067); assay: as above; conditions: higher number = stronger affinity
T1 construct: Abeta 1-42
In short: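 AD patient serum or plasma (50% in PBS) was incubated with Abeta-42 aggregates (30 μg) for 1 h at 37 °C, then stained with Thioflavin S for 30 min. Labeled particles were FACS-sorted, trypsin/Lys-C digested overnight and analyzed by MS/MS. Sequest searched human UniProt; Scaffold/Protein Prophet validated the identifications.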

Q: Which “Semi-quantitative analysis of proteins binding to different plaque particles: Abeta-42” value does the source give for B1 here?
A: 5

Q: With B2 as the molecule, how does the “Semi-quantitative analysis of proteins binding to different plaque particles: Abeta-42” value read?
A: 12

Q: How did the “Semi-quantitative analysis of proteins binding to different plaque particles: Abeta-42” value turn out when B3 was run?
A: 18

Q: With B4 as the molecule, how does the “Semi-quantitative analysis of proteins binding to different plaque particles: Abeta-42” value read?
A: 11

Q: Which “Semi-quantitative analysis of proteins binding to different plaque particles: Abeta-42” value does the source give for B5 here?
A: 9

Q: Which “Semi-quantitative analysis of proteins binding to different plaque particles: Abeta-42” value does the source give for B6 here?
A: 9

Q: For B7, which “Semi-quantitative analysis of proteins binding to different plaque particles: Abeta-42” value is on record?
A: 7

Q: B8 was tested. Which “Semi-quantitative analysis of proteins binding to different plaque particles: Abeta-42” value did it give?
A: 12

target: T2, alpha-synuclein plaque particles (Homo sapiens, UniProt P37840); assay: as above; conditions: higher number = stronger affinity
T2 construct: 140 amino acids polypeptide
In short: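 AD-subject plasma or serum (800 μL of 50%) mixed with 30 μg preformed alpha-synuclein aggregates for 1 h at 37 °C; Thioflavin S-positive particles isolated by flow sorting. After reduction, acrylamide alkylation and overnight tryptic digestion, serum proteins identified by MS/MS with Sequest and Scaffold.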

Q: With B1 as the molecule, how does the “Semi-quantitative analysis of proteins binding to different plaque particles: Synuclein” value read?
A: 0

Q: For B2, which “Semi-quantitative analysis of proteins binding to different plaque particles: Synuclein” value is on record?
A: 0

Q: With B3 as the molecule, how does the “Semi-quantitative analysis of proteins binding to different plaque particles: Synuclein” value read?
A: 0

Q: With B4 as the molecule, how does the “Semi-quantitative analysis of proteins binding to different plaque particles: Synuclein” value read?
A: 14

Q: For B5, which “Semi-quantitative analysis of proteins binding to different plaque particles: Synuclein” value is on record?
A: 21

Q: How did the “Semi-quantitative analysis of proteins binding to different plaque particles: Synuclein” value turn out when B6 was run?
A: 12

Q: B7 was tested. Which “Semi-quantitative analysis of proteins binding to different plaque particles: Synuclein” value did it give?
A: 10

Q: How did the “Semi-quantitative analysis of proteins binding to different plaque particles: Synuclein” value turn out when B8 was run?
A: 17
